# Reference: patent US20100190698A1 (PHYLOGICA, published 2010)
# Target: c-Jun (Jun dimers as AP-1 moieties, endogenous in K562/AP1-Luc cells) (UniProt P05412 1-331)
# Assay: cell-based or functional assay
# Chain of c-Jun (Jun dimers as AP-1 moieties, endogenous in K562/AP1-Luc cells) (P05412 whole entry): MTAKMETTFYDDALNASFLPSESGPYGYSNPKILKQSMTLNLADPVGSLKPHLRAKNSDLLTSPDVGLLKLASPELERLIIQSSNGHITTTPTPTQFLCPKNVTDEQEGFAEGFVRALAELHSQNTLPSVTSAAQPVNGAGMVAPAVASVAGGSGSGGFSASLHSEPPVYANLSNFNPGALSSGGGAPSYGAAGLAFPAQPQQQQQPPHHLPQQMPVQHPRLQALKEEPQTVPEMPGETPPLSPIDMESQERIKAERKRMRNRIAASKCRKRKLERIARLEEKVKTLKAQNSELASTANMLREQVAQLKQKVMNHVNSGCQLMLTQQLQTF
row,Binder,"AP-1 reporter activity (luciferase, K562/AP1-Luc cells), of the level observed for the control sample"
1,RSDYKDDDDKAYQSIRSGGIESSSKRER [PYC35],~35 % of control
2,RSDYKDDDDKGLQGRRRQGYQSIKP [PYC36],~44 % of control

# More lines, now with the values ahead:
row,"AP-1 reporter activity (luciferase, K562/AP1-Luc cells), of the level observed for the control sample",Binder
1,~48 % of control,RSDYKDDDDKVSINQEHHRLLPL [PYC41]
2,~47 % of control,RSDYKDDDDKGLQGRRQPGQQPQGRWSGRALPAHR [PYC38/39]
